Article PMC4593670

Biological target: F-ATPase from Paracoccus denitrificans (nine core subunits α, β, γ, δ, ε, a, b, b' and c) (Paracoccus denitrificans (strain PD1222)) (UniProt A1B8N8)
Assay: reverse-phase LC-MS of the subunits of the purified complex; subunits of F-ATPase I fractionated by reverse-phase chromatography, online electrospray MS; amounts estimated from peak areas of the ion traces, ζ against the δ-subunit

UniProt A1B8N8, sequence (A1B8N8 whole entry, looked up, stated change not applied, tested part not stated): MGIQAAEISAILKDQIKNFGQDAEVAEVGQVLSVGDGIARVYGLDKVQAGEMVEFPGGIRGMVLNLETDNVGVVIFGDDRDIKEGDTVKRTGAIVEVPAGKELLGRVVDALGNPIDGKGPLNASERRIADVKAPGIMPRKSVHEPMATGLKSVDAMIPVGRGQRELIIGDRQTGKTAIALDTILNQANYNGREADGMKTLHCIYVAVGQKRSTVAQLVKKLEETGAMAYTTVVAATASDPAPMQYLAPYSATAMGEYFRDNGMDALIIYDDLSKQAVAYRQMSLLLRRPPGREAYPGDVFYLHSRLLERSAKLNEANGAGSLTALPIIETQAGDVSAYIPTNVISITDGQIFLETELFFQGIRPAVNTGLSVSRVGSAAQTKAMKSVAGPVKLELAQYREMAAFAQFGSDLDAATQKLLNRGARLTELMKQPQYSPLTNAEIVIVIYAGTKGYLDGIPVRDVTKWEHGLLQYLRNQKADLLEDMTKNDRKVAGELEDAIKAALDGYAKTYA

ζ inhibitor protein of the F-ATPase from Paracoccus denitrificans (natural protein)
stoichiometry N (ζ-protein per F-ATPase complex): 1
